Test results: ChEMBL document CHEMBL1212772

Columns and labels:
[1] = substrate: O=C(Cc1cccs1)N[C@@H]1C(=O)N2C(C(=O)[O-])=C(C[n+]3ccccc3)CS[C@H]12; assay: (§1) Activity of Pseudomonas aeruginosa OXA-10
[2] = substrate: C[C@@H](O)[C@H]1C(=O)N2C(C(=O)O)=C(S[C@@H]3CN[C@H](CNS(N)(=O)=O)C3)[C@H](C)[C@H]12; assay: as §1
[3] = substrate: CC1(C)S[C@@H]2[C@H](NC(=O)Cc3ccccc3)C(=O)N2[C@H]1C(=O)O; assay: as §1
[4] = substrate: C[C@@H](O)[C@H]1C(=O)N2C(C(=O)O)=C(S[C@@H]3CN[C@H](C(=O)N(C)C)C3)[C@H](C)[C@H]12; assay: as §1
[5] = substrate: CC(C)(O/N=C(\C(=O)N[C@@H]1C(=O)N2C(C(=O)[O-])=C(C[n+]3ccccc3)CS[C@H]12)c1csc(N)n1)C(=O)O; assay: as §1
[6] = substrate: C[C@@H](O)[C@H]1C(=O)N2C(C(=O)O)=C(SCCNC=N)C[C@H]12; assay: as §1
[7] = substrate: O=C(Cc1cccs1)N[C@@H]1C(=O)N2C(C(=O)[O-])=C(C[n+]3ccccc3)CS[C@H]12; assay: (§2) Kcat/Km ratio of Pseudomonas aeruginosa OXA-10
[8] = substrate: CC1(C)S[C@@H]2[C@H](NC(=O)Cc3ccccc3)C(=O)N2[C@H]1C(=O)O; assay: as §2
[9] = substrate: O=C(Cc1cccs1)N[C@@H]1C(=O)N2C(C(=O)[O-])=C(C[n+]3ccccc3)CS[C@H]12; assay: (§3) Kcat/Km ratio of Klebsiella pneumoniae KPC-2
[10] = substrate: C[C@@H](O)[C@H]1C(=O)N2C(C(=O)O)=C(S[C@@H]3CN[C@H](CNS(N)(=O)=O)C3)[C@H](C)[C@H]12; assay: as §3
[11] = substrate: CC1(C)S[C@@H]2[C@H](NC(=O)Cc3ccccc3)C(=O)N2[C@H]1C(=O)O; assay: as §3
[12] = substrate: C[C@@H](O)[C@H]1C(=O)N2C(C(=O)O)=C(S[C@@H]3CN[C@H](C(=O)N(C)C)C3)[C@H](C)[C@H]12; assay: as §3
[13] = substrate: CC(C)(O/N=C(\C(=O)N[C@@H]1C(=O)N2C(C(=O)[O-])=C(C[n+]3ccccc3)CS[C@H]12)c1csc(N)n1)C(=O)O; assay: as §3
[14] = substrate: C[C@@H](O)[C@H]1C(=O)N2C(C(=O)O)=C(SCCNC=N)C[C@H]12; assay: as §3
[15] = substrate: O=C(Cc1cccs1)N[C@@H]1C(=O)N2C(C(=O)[O-])=C(C[n+]3ccccc3)CS[C@H]12; assay: (§4) Activity of Klebsiella pneumoniae KPC-2
[16] = substrate: C[C@@H](O)[C@H]1C(=O)N2C(C(=O)O)=C(S[C@@H]3CN[C@H](CNS(N)(=O)=O)C3)[C@H](C)[C@H]12; assay: as §4
[17] = substrate: CC1(C)S[C@@H]2[C@H](NC(=O)Cc3ccccc3)C(=O)N2[C@H]1C(=O)O; assay: as §4
[18] = substrate: C[C@@H](O)[C@H]1C(=O)N2C(C(=O)O)=C(S[C@@H]3CN[C@H](C(=O)N(C)C)C3)[C@H](C)[C@H]12; assay: as §4
[19] = substrate: CC(C)(O/N=C(\C(=O)N[C@@H]1C(=O)N2C(C(=O)[O-])=C(C[n+]3ccccc3)CS[C@H]12)c1csc(N)n1)C(=O)O; assay: as §4
[20] = substrate: C[C@@H](O)[C@H]1C(=O)N2C(C(=O)O)=C(SCCNC=N)C[C@H]12; assay: as §4

B1: Beta-lactamase OXA-10 (Pseudomonas aeruginosa), P14489 (protein)
chain: MKTFAAYVIIACLSSTALAGSITENTSWNKEFSAEAVNGVFVLCKSSSKSCATNDLARASKEYLPASTFKIPNAIIGLETGVIKNEHQVFKWDGKPRAMKQWERDLTLRGAIQVSAVPVFQQIAREVGEVRMQKYLKKFSYGNQNISGGIDKFWLEGQLRISAVNQVEFLESLYLNKLSASKENQLIVKEALVTEAAPEYLVHSKTGFSGVGTESNPGVAWWVGWVEKETEVYFFAFNMDIDNESKLPLRKSIPTKIMESEGIIGG
- Km [1]: 200 µM
- kcat [1]: 16 s⁻¹
- kcat [2]: < 0.0073 s⁻¹
- Km [3]: 7.9 µM
- kcat [3]: 86 s⁻¹
- kcat [4]: < 0.005 s⁻¹
- kcat [5]: < 0.0095 s⁻¹
- kcat [6]: < 0.014 s⁻¹
- kcat/Km [7]: 80000 M⁻¹ s⁻¹
- kcat/Km [8]: 1.1e+07 M⁻¹ s⁻¹

B2: Carbapenem-hydrolyzing beta-lactamase KPC (Klebsiella pneumoniae), Q9F663 (protein)
chain: MSLYRRLVLLSCLSWPLAGFSATALTNLVAEPFAKLEQDFGGSIGVYAMDTGSGATVSYRAEERFPLCSSFKGFLAAAVLARSQQQAGLLDTPIRYGKNALVPWSPISEKYLTTGMTVAELSAAAVQYSDNAAANLLLKELGGPAGLTAFMRSIGDTTFRLDRWELELNSAIPGDARDTSSPRAVTESLQKLTLGSALAAPQRQQFVDWLKGNTTGNHRIRAAVPADWAVGDKTGTCGVYGTANDYAVVWPTGRAPIVLAVYTRAPNKDDKHSEAVIAAAARLALEGLGVNGQ
- kcat/Km [9]: 760000 M⁻¹ s⁻¹
- kcat/Km [10]: 340000 M⁻¹ s⁻¹
- kcat/Km [11]: 2e+06 M⁻¹ s⁻¹
- kcat/Km [12]: 280000 M⁻¹ s⁻¹
- kcat/Km [13]: 1700 M⁻¹ s⁻¹
- kcat/Km [14]: 340000 M⁻¹ s⁻¹
- Km [15]: 510 µM
- kcat [15]: 390 s⁻¹
- Km [16]: 1.6 µM
- kcat [16]: 0.55 s⁻¹
- Km [17]: 30 µM
- kcat [17]: 60 s⁻¹
- Km [18]: 13 µM
- kcat [18]: 3.6 s⁻¹
- Km [19]: 230 µM
- kcat [19]: 0.38 s⁻¹
- Km [20]: 90 µM
- kcat [20]: 31 s⁻¹
